# Reference: patent publication US20060281673A1, “Novel peptide inhibitor of hiv fusion that disrupts the internal trimeric coiled-coil of gp41” (priority 2003, published 2006)
# Molecular target: pre-hairpin intermediate of gp41 (HIV-1 Env on effector cells) (HIV-1) (UniProt P03377)
# Assay: cell-based or functional assay
substance,measurement,value
N36 peptide,"IC50, inhibition of HIV Env-mediated cell fusion (vaccinia virus-based reporter gene assay)",16 µM
